Measured values published in patent US20150087581A1 (AURIGENE DISCOVERY TECHNOLOGIES, published 2015).
Bridges are numbered along the chain shown (N, C = ends). Where no end group is shown, it is not given here. [ ]: non-standard residue; d: D form. The star is where a group is joined. Biotin = O=C1N[C@H]2[C@H](CS[C@H]2CCCCC(=O)*)N1; Palmitoyl = CCCCCCCCCCCCCCCC(=O)*; R5 = C=CCCC[C@@](C)(N)C(=O)O; SNTSESF = not defined here; Octanoyl = CCCCCCCC(=O)*; Hexanoyl = CCCCCC(=O)*; Ahx = NCCCCCC(=O)O

B1: Compound 49 (peptide)
peptide: EKIQAKPALQTVRFKFSESTNS
modifications: not fully specified; Retro inverso (All D-amino acid); branch fsestns on the side chain of lys 15 of the main chain; C-terminal amide
B2: Compound 10 (peptide)
peptide: SNQTDKVLNWYRMLAPKAQIKE-NH2
modifications: not fully specified (residue 6); printed as SNQTDK (SNQTDK) VLNWYRM LAPKAQIKE-NH2
B3: Compound 60 (peptide)
peptide: {Biotin-Ahx}-[dS][dN][dT][dS][dE][dS][dF][dK][dF][dR][dV][dT][dQ][dL][dA][dP][dK][dA][dQ][dI][dK][dE]-NH2
modifications: not fully specified (residue 8); printed as Biotin-Ahx-sntsesfk(sntsesf)frvtqlapkaqike-NH2

target: hPDL1 expressed on MDA-MB231 cells (human, UniProt Q9NZQ7 19-290); experiment: cell-based or functional assay
Sequence (Q9NZQ7 19-290): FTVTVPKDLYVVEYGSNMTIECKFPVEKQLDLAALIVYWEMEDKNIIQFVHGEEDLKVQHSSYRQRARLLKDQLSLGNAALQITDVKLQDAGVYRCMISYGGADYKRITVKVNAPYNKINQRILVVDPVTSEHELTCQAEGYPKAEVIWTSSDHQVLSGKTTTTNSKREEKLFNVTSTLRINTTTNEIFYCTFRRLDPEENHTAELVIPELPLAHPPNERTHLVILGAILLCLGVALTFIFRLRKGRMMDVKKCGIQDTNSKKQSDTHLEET

Row | Binder | Percent rescue (100 nM, compared with 100 nM Comp 8) in mouse splenocyte proliferation CFSE based assay [%]
1 | SNTSESFKFRVTQLAKQIKE-NH2 (not fully specified (residues 8, 16)) [Compound 36] | 89.7
2 | B1 | 73
3 | SNTSESFK(SNTSESF)FRVTELAPKAQIKE-NH2 (lactam 13-17; reading uncertain) [Compound 64] | 69.1
4 | SNTSESFKFRVTQLAPK(Octanoyl)AQIKE-NH2 (not fully specified (residue 8)) [Compound 45] | 68
5 | SNTSESFK-NH2 (not fully specified (residue 8)) [Compound 29] | 31.1
6 | SNWSEDLK(SNWSEDL)FQIIQLHPK(Palmitoyl)AKIEE-NH2 [Compound 82] | 58.3
7 | SNTSESFKKAQIKE-NH2 (not fully specified (residue 8)) [Compound 32] | 14.8
8 | SNQTDKLAAFPEDSQPGQD-NH2 [Compound 3] | 37.3
9 | SNTSESFKSNTSESFFRVTQLAPKAQIKE-NH2 [Compound 28] | 56.5
10 | SNTSESFKFK(Palmitoyl)VTQLAPKAQIKE-NH2 (not fully specified (residue 8)) [Compound 40] | 82
11 | Ac-SNTSESFKFRVTQLAPKAQIKE-NH2 (not fully specified (residue 8)) [Compound 17] | 32.9
12 | SNTSESFK(SNTSESF)FRVTQLAPEAQIKE-NH2 (lactam 17-21; reading uncertain) [Compound 62] | 37
13 | SNTSESFK(SNTSESF)FKVTQEAPKAQIKE-NH2 (lactam 10-14; reading uncertain) [Compound 63] | 68
14 | SNQTDKFRVTQLAPKAQIKE-NH2 (not fully specified (residue 6); printed as SNQTDK (SNQTDK) FRVTQ LAPKAQIKE-NH2) [Compound 9] | 11.3
15 | SNTSESFKLAPKAQIKE-NH2 (not fully specified (residue 8)) [Compound 30] | 58.8
16 | SNTSESFKFRVTQLAPKAQIKE-NH2 [Compound 27] | 73.6
17 | SNTSESFKFRVTQKAQIKE-NH2 (not fully specified (residue 8)) [Compound 31] | 11.3
18 | SNTSESFFRVTQLAPKAQIKE-NH2 [Compound 26] | 86.6
19 | SNTSESFFRVTQKLAPKAQIKE-NH2 (not fully specified (residue 13)) [Compound 42] | 52.9
20 | SNWSEDLK(SNWSEDL)FQIIQLHPKAKIEE-NH2 [Compound 69] | 48
21 | SNTSESFKFRVTQKKAQIKE-NH2 (not fully specified (residues 8, 14)) [Compound 35] | 81.2

Row | Binder | Percent rescue (100 nM, compared with 100 nM Comp 8) in mouse splenocyte proliferation CFSE based assay [%]
22 | SNTSESFKFRVTQLAPKAQIKE-NH2 (not fully specified (residue 8)) [Compound 11] | 12.4
23 | Hexanoyl-SNTSESFKFRVTQLAPKAQIKE-NH2 (not fully specified (residue 8)) [Compound 21] | 76.7
24 | SNTSESFKFRVTQLAP-NH2 (not fully specified (residue 8)) [Compound 41] | 5.1
25 | B2 | 10.6
26 | SNTSESF-NH2 [Compound 1] | 96.5
27 | SNWSEDLKFQIIQLHPK(MPA‑NH‑CH2‑CH2‑O‑CH2‑CH2‑O‑CO)AKIEE-NH2 (not fully specified (residue 8)) [Compound 91] | 69.4
28 | FRVTQLAPKAQIKE-NH2 [Compound 43] | 66
29 | FRVTQKFRVTQLAPKAQIKE-NH2 (not fully specified (residue 6)) [Compound 7] | 61.5
30 | Hexanoyl-SNTSESFKFRVTQLAPKAQIKE-NH2 (not fully specified (residue 8)) [Compound 16] | 45.8
31 | SNTSESFKFRVTQLAPKAQIKE-NH2 (not fully specified (residue 8); printed as SNTSESFK(LAP)FRVTQLAPKAQIKE-NH2) [Compound 37] | 89.6
32 | SNTSESFKFRVTQLAPKAQIKE-NH2 (not fully specified (residue 8)) [Compound 20] | 27.8
33 | SNTSESFKFRVTQLAPKAQIK(Octanoyl)E-NH2 (not fully specified (residue 8)) [Compound 46] | 67
34 | EKIQAKPAYWNLVKDTQNS-NH2 (not fully specified (residue 14)) [Compound 14] | 18
35 | SNTSESF[R5]PKA[R5]SNTSESF-NH2 (staple 8-12; not fully specified; printed as SNTSESFR5PKAR5SNTSESF) [Compound 22] | 71.4
36 | LAPKFRVTQLAPKAQIKE-NH2 (not fully specified (residue 4); printed as LAPK(LAP)FRVTQLAPKAQIKE-NH2) [Compound 38] | 51.5
37 | SNTSESFKFRVTQLAQIKE-NH2 (not fully specified (residue 8)) [Compound 25] | 27.6
38 | {Biotin-Ahx}-EKIQAKPAYWNLVKDTQNS-NH2 (not fully specified (residue 14)) [Compound 61] | 67
39 | SNTSESFKFRVTQLAPKAQIKE-NH2 (not fully specified (residue 8)) [Compound 84] | 80.5
40 | B3 | 14.9
41 | EDRSQPGQDCR-NH2 [Compound 4] | 74.7
